Data reported in the supplement of paper PMC12667976.
± gives the standard error.

B1: library; numbered along this chain (parent)
chain: MATDAALRRLLRLHRTEIAVAVDSAFPLLHALADHDVVPEDKFQETLHLKEKEGCPQAFHALLSWLLTQDSTAILDFWRVLFKDYNLERYGRLQPILDSFPKDVDLSQPRKGRKPPAVPKALVPPPRLPTKRKASEEARAAAPAALTPRGTASPGSQLKAKPPKKPESSAEQQRLPLGNGIQTMSASVQRAVAMSSGDVPGARGAVEGILIQQVFESGGSKKCIQVGGEFYTPSKFEDSGSGKNKARSSSGPKPLVRAKGAQGAAPGGGEARLGQQGSVPAPLALPSDPQLHQKNEDECAVCRDGGELICCDGCPRAFHLACLSPPLREIPSGTWRCSSCLQATVQEVQPRAEEPRPQEPPVETPLPPGLRSAGEEVRGPPGEPLAGMDTTLVYKHLPAPPSAAPLPGLDSSALHPLLCVGPEGQQNLAPGARCGVCGDGTDVLRCTHCAAAFHWRCHFPAGTSRPGTGLRCRSCSGDVTPAPVEGVLAPSPARLAPGPAKDDTASHEPALHRDDLESLLSEHTFDGILQWAIQSMARPAAPFPS

Variants of: B1
Experiment: AIRE transcriptional activation functional score (insulin promoter-GFP; nonsense median 0, synonymous median 1) (normalised score); higher = higher AIRE activity (more reporter activation)
Details: with insulin promoter-GFP reporter in HEK293
Procedure, shortened: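 Integration of codon-optimized AIRE NNN-codon libraries (three regions) by Bxb1 recombinase was done in Flp-In T-REx HEK293 landing-pad cells containing an insulin core promoter-GFP reporter. Tile-sequencing covered the top 10% GFP cells and the unselected integrants, drawn from mCherry+, BFP− cells sorted at day 7 and grown 7 days. Functional score means the enrichment of a variant in select versus non-select, minus that of wild type. Variants with at least 10 counts per million in non-select were rescaled to nonsense median 0 and synonymous median 1, and the biological replicates were averaged.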

C55R was tested. Which “AIRE transcriptional activation functional score” value did it give?
Its value is 0.308 ± 0.33.

Which “AIRE transcriptional activation functional score” value does the source give for C55Q here?
The value was -0.411 ± 0.27.

Which “AIRE transcriptional activation functional score” value does the source give for Q157E here?
The value was 1.26 ± 0.53.

Q157K was tested. Which “AIRE transcriptional activation functional score” value did it give?
The value was 0.787 ± 0.22.

How did the “AIRE transcriptional activation functional score” value turn out when Q157S was run?
Its value is 1.05 ± 0.49.

A321N was tested. Which “AIRE transcriptional activation functional score” value did it give?
Its value is 1.06 ± 0.24.

Which “AIRE transcriptional activation functional score” value does the source give for E363M here?
The value was 1.7 ± 0.028.

For E363F, which “AIRE transcriptional activation functional score” value is on record?
The value was 1.34 ± 0.095.

Which “AIRE transcriptional activation functional score” value does the source give for Q534C here?
The value was 1.08 ± 0.42.

With Q534V as the variant, how does the “AIRE transcriptional activation functional score” value read?
The value was 0.135 ± 0.36.

For P266C, which “AIRE transcriptional activation functional score” value is on record?
Its value is 1.09 ± 0.19.

With E40T as the variant, how does the “AIRE transcriptional activation functional score” value read?
The value was -0.598 ± 1.6.

Which “AIRE transcriptional activation functional score” value does the source give for E40A here?
Its value is -0.436 ± 0.32.

G228K was tested. Which “AIRE transcriptional activation functional score” value did it give?
Its value is 0.799 ± 0.39.

How did the “AIRE transcriptional activation functional score” value turn out when V377K was run?
Its value is 0.952 ± 0.045.

For K164W, which “AIRE transcriptional activation functional score” value is on record?
Its value is 1.33 ± 0.58.

Which “AIRE transcriptional activation functional score” value does the source give for E383C here?
The value was 1.18 ± 0.1.

Which “AIRE transcriptional activation functional score” value does the source give for C311S here?
Its value is 1.04 ± 0.16.

Which “AIRE transcriptional activation functional score” value does the source give for I209S here?
Its value is 0.203 ± 0.18.

How did the “AIRE transcriptional activation functional score” value turn out when L13C was run?
Its value is 0.26 ± 0.64.

For R190E, which “AIRE transcriptional activation functional score” value is on record?
Its value is 0.705 ± 0.16.

With H396E as the variant, how does the “AIRE transcriptional activation functional score” value read?
The value was -0.185 ± 0.093.

For H396T, which “AIRE transcriptional activation functional score” value is on record?
The value was 0.549 ± 0.24.

G277I was tested. Which “AIRE transcriptional activation functional score” value did it give?
The value was 1.24 ± 0.12.

Which “AIRE transcriptional activation functional score” value does the source give for K243L here?
The value was 1.47 ± 0.22.

Which “AIRE transcriptional activation functional score” value does the source give for G54T here?
Its value is -1.14 ± 0.59.

G54V was tested. Which “AIRE transcriptional activation functional score” value did it give?
Its value is 0.385 ± 0.17.

With V479W as the variant, how does the “AIRE transcriptional activation functional score” value read?
Its value is 1.09 ± 0.053.

With L81H as the variant, how does the “AIRE transcriptional activation functional score” value read?
Its value is -1.4 ± 0.2.

With L81P as the variant, how does the “AIRE transcriptional activation functional score” value read?
Its value is 0.303 ± 0.071.

Which “AIRE transcriptional activation functional score” value does the source give for D84M here?
The value was -0.309 ± 0.14.

For L63C, which “AIRE transcriptional activation functional score” value is on record?
The value was -0.0612 ± 0.18.

E270V was tested. Which “AIRE transcriptional activation functional score” value did it give?
Its value is 1.36 ± 0.34.

D304R was tested. Which “AIRE transcriptional activation functional score” value did it give?
The value was 0.879 ± 0.43.

I181D was tested. Which “AIRE transcriptional activation functional score” value did it give?
Its value is 0.3 ± 0.12.

With I181G as the variant, how does the “AIRE transcriptional activation functional score” value read?
Its value is 0.602 ± 0.39.

For P252I, which “AIRE transcriptional activation functional score” value is on record?
Its value is 0.937 ± 0.16.

With C446K as the variant, how does the “AIRE transcriptional activation functional score” value read?
Its value is 0.294 ± 0.11.

How did the “AIRE transcriptional activation functional score” value turn out when I74H was run?
Its value is 0.604 ± 0.27.

G260W was tested. Which “AIRE transcriptional activation functional score” value did it give?
Its value is 1.18 ± 0.024.

How did the “AIRE transcriptional activation functional score” value turn out when R113F was run?
Its value is 1.12 ± 0.14.

With V487G as the variant, how does the “AIRE transcriptional activation functional score” value read?
The value was 0.931 ± 0.44.

V199G was tested. Which “AIRE transcriptional activation functional score” value did it give?
Its value is 1.09 ± 0.3.

For D526T, which “AIRE transcriptional activation functional score” value is on record?
Its value is -0.207 ± 0.066.

Which “AIRE transcriptional activation functional score” value does the source give for D526K here?
Its value is 0.177 ± 0.026.

With A540G as the variant, how does the “AIRE transcriptional activation functional score” value read?
Its value is 1 ± 0.31.

For L529I, which “AIRE transcriptional activation functional score” value is on record?
The value was 1.17 ± 0.3.

With K221M as the variant, how does the “AIRE transcriptional activation functional score” value read?
The value was 1.02 ± 0.17.

Which “AIRE transcriptional activation functional score” value does the source give for P280G here?
Its value is 1.17 ± 0.45.

Which “AIRE transcriptional activation functional score” value does the source give for S99H here?
The value was 0.569 ± 0.12.

S99M was tested. Which “AIRE transcriptional activation functional score” value did it give?
The value was 1.07 ± 0.094.

For C472E, which “AIRE transcriptional activation functional score” value is on record?
Its value is 0.216 ± 0.091.

How did the “AIRE transcriptional activation functional score” value turn out when H523Q was run?
Its value is 0.954 ± 0.57.

For G369V, which “AIRE transcriptional activation functional score” value is on record?
The value was 0.854 ± 0.23.

Which “AIRE transcriptional activation functional score” value does the source give for S71I here?
Its value is 0.605 ± 0.47.

G379V was tested. Which “AIRE transcriptional activation functional score” value did it give?
Its value is 0.691 ± 0.24.

Which “AIRE transcriptional activation functional score” value does the source give for G379K here?
The value was 1.19 ± 0.07.

How did the “AIRE transcriptional activation functional score” value turn out when K111T was run?
The value was 0.947 ± 0.58.

With W335S as the variant, how does the “AIRE transcriptional activation functional score” value read?
The value was 1.27 ± 0.35.

P380D was tested. Which “AIRE transcriptional activation functional score” value did it give?
The value was 0.476 ± 0.062.

Which “AIRE transcriptional activation functional score” value does the source give for P380A here?
Its value is 0.626 ± 0.18.

A205S was tested. Which “AIRE transcriptional activation functional score” value did it give?
The value was 1.09 ± 0.23.

How did the “AIRE transcriptional activation functional score” value turn out when E88T was run?
Its value is 1.95 ± 0.23.

Which “AIRE transcriptional activation functional score” value does the source give for E88Q here?
The value was 1.91 ± 1.3.

Which “AIRE transcriptional activation functional score” value does the source give for E88M here?
Its value is 0.132 ± 0.046.

How did the “AIRE transcriptional activation functional score” value turn out when G462H was run?
The value was 0.925 ± 0.089.

With D34L as the variant, how does the “AIRE transcriptional activation functional score” value read?
Its value is 0.437 ± 0.75.

E353F was tested. Which “AIRE transcriptional activation functional score” value did it give?
The value was 1.25 ± 0.11.

For E353L, which “AIRE transcriptional activation functional score” value is on record?
Its value is 1.18 ± 0.15.

E353P was tested. Which “AIRE transcriptional activation functional score” value did it give?
Its value is 1.12 ± 0.19.

Which “AIRE transcriptional activation functional score” value does the source give for H448S here?
Its value is 0.0363 ± 0.091.

For P430K, which “AIRE transcriptional activation functional score” value is on record?
The value was 0.999 ± 0.086.

How did the “AIRE transcriptional activation functional score” value turn out when P430H was run?
Its value is 1.32 ± 0.061.

How did the “AIRE transcriptional activation functional score” value turn out when S153H was run?
Its value is 1.41 ± 0.56.

For S153E, which “AIRE transcriptional activation functional score” value is on record?
Its value is 1.14 ± 0.16.

With P286E as the variant, how does the “AIRE transcriptional activation functional score” value read?
The value was 1 ± 0.042.

For A300P, which “AIRE transcriptional activation functional score” value is on record?
The value was 1.05 ± 0.12.

How did the “AIRE transcriptional activation functional score” value turn out when L414R was run?
Its value is 0.749 ± 0.26.

With P539I as the variant, how does the “AIRE transcriptional activation functional score” value read?
The value was 0.0871 ± 0.21.

I309Q was tested. Which “AIRE transcriptional activation functional score” value did it give?
Its value is 0.905 ± 0.18.

Which “AIRE transcriptional activation functional score” value does the source give for I309G here?
Its value is 1.11 ± 0.13.

I309D was tested. Which “AIRE transcriptional activation functional score” value did it give?
Its value is 0.964 ± 0.094.

How did the “AIRE transcriptional activation functional score” value turn out when F230W was run?
Its value is 0.97 ± 0.041.
